What was measured:
[1] = test system: mouse bone marrow cells; assay: Inhibition of induction of MSCs, cancer-associated MSCs and M-MDSCs by FSTL1 in mouse bone marrow cells (Examples 13-15); type: cell-based; settings: Example 15: 20 ng/mL FSTL1; antibody 20.0, 10.0, 5.0 or 2.5 μg/ml; 8 days; FIG. 104A
Method: Mouse bone marrow cells prepared in the same way as in Example 4 were supplemented with 20 ng/mL ([…], #7-34, #8-1, or #8-4), an anti-PD-L1 antibody reported to have an immunosuppression-mitigating effect, or a control antibody anti-DNP antibody and cultured under stimulation. 8 days thereafter, the number of cells was counted while the cells were stained with a PE-Cy5-labeled anti-CD45 antibody, a PE-labeled anti-ALCAM antibody, a FITC-labeled anti-CD271 antibody (Abcam plc, Cat. No. AB62122), a FITC-labeled anti-CD11b antibody (BD Pharmingen/Becton, Dickinson and Company, Cat. No. 553310), and a PE-Cy5-labeled anti-Gr1 antibody (eBioscience, Cat. No. 15-5931) in order to detect MSCs (CD45− negative cells), cancer-associated MSCs (CD45-negative, ALCAM-positive, and CD271-positive cells) which are MSCs increasing in number in association with cancer metastasis, and monocytic myeloid-derived suppressor cells (M-MDSCs: CD11b-positive, Gr1-positive, and ALCAM-positive cells) increasing in number together with cancer-associated MSCs, and the contents of the cells mentioned above were analyzed by flow cytometry using FACScan to calculate the percentage and number of MSCs per culture (FIG. 102). […]
The antibody clone (#6-55, #7, #10, #13, or #22) was evaluated for its activity by the same testing method as in Example 13. #6-55 was set as a positive control for activity. […]

[2] = test system: mouse breast cancer 4T1 cells; assay: In vivo, mouse breast cancer 4T1 cell-transplanted model (Example 21); settings: BALB/c mice; intraperitoneal 10 mg/kg on days 4 and 7
Method: Procedures and methods of the experiment were basically performed according to Examples 17 to 20 under substantially the same conditions as in the bone metastasis model experiments of Examples 17 to 20. Drug efficacy evaluation was conducted using mouse tumor models other than Snail-positive tumor bone metastasis models. The drug efficacy of the anti-FSTL1 antibody was evaluated using cancer-bearing models of BALB/c mice different in strain from the C57BL/6 mice used in the preceding tests. Changes were made as follows. • Day 0: transplantation of tumor cells (5×10^5 cells subcutaneously & 5×10^5 cells intravenously) Days 4 and 7: intraperitoneal administration of the antibody (10 mg/kg) • Day 14: drug efficacy evaluation (subcutaneous tumor growth)
The tumor volumes of the mice were measured 4, 7, 11, and 14 days after tumor implantation.

[3] = test system: human pancreatic cancer cell line Panc1; assay: Action on Panc1 under FSTL1 stimulation (Example 26); type: cell-based; settings: Panc1 stimulated with FSTL1 for 3 days, antibody 5 μg/ml; FIG. 114B
Source text: Specifically, the influence of the anti-FSTL1 antibody on proliferative capacity and invasive capacity was studied using various human tumor cells, regardless of the presence or absence of the expression of Snail or FSTL1. […] After culture for 3 days, the number of cells per culture system was counted to evaluate the proliferative capacity of the cells. […] Then, the number of cells that permeated the membranes was counted under a microscope to evaluate the invasive capacity of the cells.
Next, in order to examine how surrounding tumor cells were changed in a cancer microenvironment by receiving FSTL1 produced by Snail/FSTL1-expressing cells, and how the anti-FSTL1 antibody acts thereon, a human pancreatic cancer cell line Panc1 confirmed to express Snail or FSTL1 only slightly was stimulated with FSTL1 for 3 days. The anti-FSTL1 antibody (#6-55, 5 μg/ml) or a control antibody (aHema, 5 μg/ml) was added to this culture system, and subsequent change in cell function was analyzed in the same way as in the preceding paragraph. […]

B1: #6-55: chicken-mouse chimeric anti-FSTL1 antibody clone; variable regions SEQ ID NO: 783 (light), 785 (heavy) (antibody, V domains shown)
VH: AVTLDESGGGLQTPGGALSLVCKGSGFTFTSVTMQWVRQAPGKGLEWVASVCSGSSTYYAPAVKGRATISRDNGQSTVRLQLSNLRPEDTGTYYCAKIAGRARWSCTSAAYNIDAWGHGTEVIVSS
VL: ASTQPSSVSAIPGETVKITCSGGGNNYGWYQQRSPGSAPVTVIYYNDNRPSNIPSRFSGSTSGSTSTLTITGVQADDEAIYYCGSWDSNTDSGIFGAGTTLTVL
modifications: mouse constant regions
inhibitory activity against the induction of MSCs, cancer-associated MSCs, and M-MDSCs by FSTL1 [1]: at the same level
growth of 4T1 subcutaneous tumor [2]: significantly suppressed
cell growth [3]: reduced
enhancement of invasive capacity by FSTL1 [3]: canceled

Reference: US20180021429A1, “ANTICANCER AGENTS OR ANTIMETASTATIC AGENTS USING FSTL1 AND COMBINATION DRUG THEREOF” (PHARMA FOODS INTERNATIONAL CO., LTD., priority 2015, published 2018)
